How the values were obtained:
AtTCP22;AtTCP23 = AtTCP22;AtTCP23 (Arabidopsis thaliana;Arabidopsis …, UniProt Q9C7G4;Q9LQF0 1-375;1-341, |); experiment: EMSA; heterodimer; LightShift Chemiluminescent EMSA Kit (Pierce), manufacturer's instructions; buffer, salt, pH and temperature not stated; details: protein: recombinant;recombinant; tags: N-terminal GST (pDEST15);N-terminal GST (pDEST15); copies: 1;1; label: biotin (both strands); blunt
AtTCP7;AtTCP22 = AtTCP7;AtTCP22 (Arabidopsis thaliana;Arabidopsis …, UniProt Q9FMX2;Q9C7G4 1-250;1-375, |); experiment: as above; details: protein: recombinant;recombinant; tags: N-terminal GST (pDEST15);N-terminal GST (pDEST15); copies: 1;1; label: biotin (both strands); blunt
Chain of AtTCP7;AtTCP22 (Q9FMX2 whole entry, chain 1 of 2): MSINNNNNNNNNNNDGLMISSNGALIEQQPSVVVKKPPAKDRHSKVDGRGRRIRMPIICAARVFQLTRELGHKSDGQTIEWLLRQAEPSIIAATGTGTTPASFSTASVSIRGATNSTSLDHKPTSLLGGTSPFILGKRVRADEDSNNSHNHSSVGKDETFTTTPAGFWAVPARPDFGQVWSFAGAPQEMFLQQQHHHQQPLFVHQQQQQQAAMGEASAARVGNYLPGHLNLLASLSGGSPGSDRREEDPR
Chain of AtTCP7;AtTCP22 (Q9C7G4 whole entry, chain 2 of 2): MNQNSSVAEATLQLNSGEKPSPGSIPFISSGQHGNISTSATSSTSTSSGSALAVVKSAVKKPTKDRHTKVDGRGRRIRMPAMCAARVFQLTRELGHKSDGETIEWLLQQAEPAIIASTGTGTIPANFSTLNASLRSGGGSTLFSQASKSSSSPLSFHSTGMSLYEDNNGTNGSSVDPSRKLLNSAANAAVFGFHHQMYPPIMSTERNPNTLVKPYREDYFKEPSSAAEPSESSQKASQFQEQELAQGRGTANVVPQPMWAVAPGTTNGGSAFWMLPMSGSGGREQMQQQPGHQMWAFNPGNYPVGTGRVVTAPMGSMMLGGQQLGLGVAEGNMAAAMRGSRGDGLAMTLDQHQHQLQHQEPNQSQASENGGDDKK

AtTCP7;AtTCP23 = AtTCP7;AtTCP23 (Arabidopsis thaliana;Arabidopsis …, UniProt Q9FMX2;Q9LQF0 1-250;1-341, |); experiment: as above; details: protein: recombinant;recombinant; tags: N-terminal GST (pDEST15);N-terminal GST (pDEST15); copies: 1;1; label: biotin (both strands); blunt
Chain of AtTCP7;AtTCP23 (Q9FMX2 whole entry, chain 1 of 2): as the sequence (Q9FMX2 whole entry, chain 1 of 2) above
Chain of AtTCP7;AtTCP23 (Q9LQF0 whole entry, chain 2 of 2): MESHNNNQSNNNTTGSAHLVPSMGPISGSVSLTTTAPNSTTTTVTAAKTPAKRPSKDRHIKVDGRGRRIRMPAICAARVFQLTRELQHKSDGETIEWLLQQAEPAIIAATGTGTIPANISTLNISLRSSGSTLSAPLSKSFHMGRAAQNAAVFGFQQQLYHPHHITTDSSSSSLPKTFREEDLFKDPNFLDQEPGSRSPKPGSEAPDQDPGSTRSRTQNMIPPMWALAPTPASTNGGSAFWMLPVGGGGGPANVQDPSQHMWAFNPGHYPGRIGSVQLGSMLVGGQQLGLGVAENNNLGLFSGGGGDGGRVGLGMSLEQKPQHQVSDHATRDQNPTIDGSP

AtTCP7 = AtTCP7 (Arabidopsis thaliana, UniProt Q9FMX2 1-250); experiment: EMSA; LightShift Chemiluminescent EMSA Kit (Pierce), manufacturer's instructions; buffer, salt, pH and temperature not stated; details: protein: recombinant; tags: N-terminal GST (pDEST15); chain copies: 2; label: biotin (both strands); blunt
Chain of AtTCP7 (Q9FMX2 whole entry): as the sequence (Q9FMX2 whole entry, chain 1 of 2) above

Measured: binding result

Chain of AtTCP22;AtTCP23 (Q9C7G4 whole entry, chain 1 of 2): as the sequence (Q9C7G4 whole entry, chain 2 of 2) above
Chain of AtTCP22;AtTCP23 (Q9LQF0 whole entry, chain 2 of 2): as the sequence (Q9LQF0 whole entry, chain 2 of 2) above

B1: STM promoter K-box probe, 76 bp (dsDNA)
DNA 1: AACTATCACTATTTAGAATTTTCAATGTGGAAAAGGAAGCTGATTGTTGAAGCATAAATCCCGGGAGACCACTTTT
DNA 2: AAAAGTGGTCTCCCGGGATTTATGCTTCAACAATCAGCTTCCTTTTCCACATTGAAAATTCTAAATAGTGATAGTT
binds: all assays above
